What follows are substances tested against T1, erythropoietin receptor on intact mouse spleen cells (mouse) (UniProt P14753) (assay: cell-based or functional assay).
T1 sequence (looked up): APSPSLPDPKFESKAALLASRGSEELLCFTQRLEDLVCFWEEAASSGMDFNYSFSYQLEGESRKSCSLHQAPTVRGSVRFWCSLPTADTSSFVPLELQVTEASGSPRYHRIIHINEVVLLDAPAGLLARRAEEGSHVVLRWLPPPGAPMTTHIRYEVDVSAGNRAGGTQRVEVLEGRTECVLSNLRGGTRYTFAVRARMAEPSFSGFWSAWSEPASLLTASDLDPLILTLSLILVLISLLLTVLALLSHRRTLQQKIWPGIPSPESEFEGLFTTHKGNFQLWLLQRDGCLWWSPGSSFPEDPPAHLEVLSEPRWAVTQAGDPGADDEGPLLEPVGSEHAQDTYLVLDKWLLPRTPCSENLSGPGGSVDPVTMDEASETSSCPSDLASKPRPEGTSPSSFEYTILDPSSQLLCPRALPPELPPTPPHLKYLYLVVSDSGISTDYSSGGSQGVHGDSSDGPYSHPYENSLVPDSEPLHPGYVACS

Point of comparison: “erythropoietin mutant R103E (from UniProt P01588 28-193) (ligand)”, SPECIFIC ACTIVITY (Krystal bioassay units per microgram by RIA, percent of wildtype erythropoietin), first set of experiments 0%. Against it:
- erythropoietin mutant L102A (from UniProt P01588 28-193) (ligand) — higher, 93.3%
- erythropoietin mutant L108A (from UniProt P01588 28-193) (ligand) — higher, 36.9%
- erythropoietin mutant R103A (from UniProt P01588 28-193) (ligand) — the same, 0%
- erythropoietin mutant R103D (from UniProt P01588 28-193) (ligand) — the same, 0%
- erythropoietin mutant R103H (from UniProt P01588 28-193) (ligand) — the same, 0%
- erythropoietin mutant R103K (from UniProt P01588 28-193) (ligand) — higher, 10.2%
- erythropoietin mutant R103L (from UniProt P01588 28-193) (ligand) — the same, 0%
- erythropoietin mutant R103N (from UniProt P01588 28-193) (ligand) — the same, 0%
- erythropoietin mutant R103Q (from UniProt P01588 28-193) (ligand) — the same, 0%

Point of comparison: “erythropoietin mutant R103L (from UniProt P01588 28-193) (ligand)”, SPECIFIC ACTIVITY (Krystal bioassay units per microgram by RIA, percent of wildtype erythropoietin), second set of experiments 0.4%. Against it:
- erythropoietin mutant R103A (from UniProt P01588 28-193) (ligand) — lower, 0%
- erythropoietin mutant R103D (from UniProt P01588 28-193) (ligand) — lower, 0%
- erythropoietin mutant R103E (from UniProt P01588 28-193) (ligand) — lower, 0%
- erythropoietin mutant R103K (from UniProt P01588 28-193) (ligand) — higher, 25%
- erythropoietin mutant R103N (from UniProt P01588 28-193) (ligand) — lower, 0%
- erythropoietin mutant R103Q (from UniProt P01588 28-193) (ligand) — lower, 0%

Point of comparison: “erythropoietin mutant R103Q (from UniProt P01588 28-193) (ligand)”, reduction in activity below wildtype human recombinant erythropoietin (Krystal bioassay) 1000 fold. Against it:
- erythropoietin mutant R103A (from UniProt P01588 28-193) (ligand) — the same, 1000 fold
- erythropoietin mutant R103D (from UniProt P01588 28-193) (ligand) — the same, 1000 fold
- erythropoietin mutant R103E (from UniProt P01588 28-193) (ligand) — the same, 1000 fold
- erythropoietin mutant R103N (from UniProt P01588 28-193) (ligand) — the same, 1000 fold

Source: patent US6489293
